Patent publication US20050064507

Experiments:
[1] = system: T1, peptide NRKKKRTSFKRKA (SEQ ID NO:3)
T1 sequence: XXPPGNRKKKRTSFKRKA

[2] = system: T2, EBNA1BP2 peptide KRPGKKGSNKRPGKR (SEQ ID NO:112)
T2 sequence: KRPGKKGSNKRPGKR

[3] = system: T3, peptide VFREHQRSGSYHVRE (SEQ ID NO:45)
T3 sequence: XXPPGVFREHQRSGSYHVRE

[4] = system: T4, ubiquitin specific protease 8 peptide RARRDSLKKIEIW (SEQ ID NO:136)
T4 sequence: RARRDSLKKIEIW

[5] = system: T5, peptide LALTARESSVRSGGAG (SEQ ID NO:69)
T5 sequence: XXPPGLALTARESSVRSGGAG

[6] = system: T6, MARCKS peptide PSPSNETPKKKKKRFSFKKS (SEQ ID NO:157)
T6 sequence: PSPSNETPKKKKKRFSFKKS

[7] = system: T7, NF1 peptide SQVQKQRSAGSFKRNSIKKI (SEQ ID NO:127)
T7 sequence: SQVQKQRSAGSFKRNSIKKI

[8] = system: T8, NF1 peptide AGSFKRNSIKKIV (SEQ ID NO:102)
T8 sequence: AGSFKRNSIKKIV

[9] = system: T9, MGC2941 peptide RPTPGDGEKRSRIKKSKKRK (SEQ ID NO:139)
T9 sequence: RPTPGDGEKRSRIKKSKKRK

[10] = system: T10, peptide RKIPKRPGSVHRTPSRQ (SEQ ID NO:7)
T10 sequence: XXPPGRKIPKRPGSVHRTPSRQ

[11] = system: T11, PLEK peptide KFARKSTRRSIRLPE (SEQ ID NO:78)
T11 sequence: KFARKSTRRSIRLPE

[12] = system: T12, peptide KRPGKKGSNKRPGKR (SEQ ID NO:28)
T12 sequence: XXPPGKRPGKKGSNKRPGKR

[13] = system: T13, peptide QKKSRLRRRASQLKI (SEQ ID NO:9)
T13 sequence: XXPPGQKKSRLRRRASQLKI

[14] = system: T14, DGKI peptide NRKKKRTSFKRKA (SEQ ID NO:79)
T14 sequence: NRKKKRTSFKRKA

[15] = system: T15, peptide AINSRETMFHKERFK (SEQ ID NO:67)
T15 sequence: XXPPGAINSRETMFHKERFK

[16] = system: T16, peptide GENVLKKSMKSRVKG (SEQ ID NO:36)
T16 sequence: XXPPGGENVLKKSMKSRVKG

[17] = system: T17, beta adducin peptide PSKSPSKKKKKFRTPSFLKK (SEQ ID NO:137)
T17 sequence: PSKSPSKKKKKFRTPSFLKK

[18] = system: T18, peptide GLLDRKGSWKKLDDM (SEQ ID NO:35)
T18 sequence: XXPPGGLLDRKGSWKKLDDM

[19] = system: T19, SPTBN4 peptide EGGDRRASGRRK (SEQ ID NO:110)
T19 sequence: EGGDRRASGRRK

[20] = system: T20, Myt1 kinase peptide PPRTPGWHQLQPRRVSFRGE (SEQ ID NO:163)
T20 sequence: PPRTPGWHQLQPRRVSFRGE

[21] = system: T21, peptide KKKKRASFKRKSSKKG (SEQ ID NO:2)
T21 sequence: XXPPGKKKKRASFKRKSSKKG

[22] = system: T22, PSCDBP peptide LSSMFGTLPRKSRKGSVRKQ (SEQ ID NO:144)
T22 sequence: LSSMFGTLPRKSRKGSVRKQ

[23] = system: T23, peptide KKKKKRFSFKKSFKL (SEQ ID NO:12)
T23 sequence: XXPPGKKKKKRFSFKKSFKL

[24] = system: T24, peptide AGSFKRNSIKKIV (SEQ ID NO:19)
T24 sequence: XXPPGAGSFKRNSIKKIV

[25] = system: T25, M1 muscarinic receptor peptide RWDKRRWRKIPKRPGSVHRT (SEQ ID NO:155)
T25 sequence: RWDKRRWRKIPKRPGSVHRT

[26] = system: T26, peptide ENLRRVATDRRHLGH (SEQ ID NO:50)
T26 sequence: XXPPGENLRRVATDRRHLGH

[27] = system: T27, peptide LLKKRDSFRTPRDSKLE (SEQ ID NO:22)
T27 sequence: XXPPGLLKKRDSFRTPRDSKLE

[28] = system: T28, peptide KKRKKKSSKSLAHA (SEQ ID NO:27)
T28 sequence: XXPPGKKRKKKSSKSLAHA

[29] = system: T29, peptide AVNSRRRAGQKKK (SEQ ID NO:48)
T29 sequence: XXPPGAVNSRRRAGQKKK

[30] = system: T30, dag kinase iota peptide NRKKKRTSFKRKA (SEQ ID NO:115)
T30 sequence: NRKKKRTSFKRKA

[31] = system: T31, dag kinase iota peptide NRKKKRTSFKRKA (SEQ ID NO:117)
T31 sequence: NRKKKRTSFKRKA

[32] = system: T32, NIK peptide TEGKMARVAWKGKRRSKARK (SEQ ID NO:164)
T32 sequence: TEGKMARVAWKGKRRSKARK

[33] = system: T33, PKD1 peptide RVVQSVKHTKRKSSTVMK (SEQ ID NO:149)
T33 sequence: RVVQSVKHTKRKSSTVMK

[34] = system: T34, Urotensin-2 receptor peptide LYARLARAYRRSQRASFKRA (SEQ ID NO:159)
T34 sequence: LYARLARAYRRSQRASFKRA

[35] = system: T35, ERN1 peptide ISDFGLAKKLAVGRHSFSRR (SEQ ID NO:145)
T35 sequence: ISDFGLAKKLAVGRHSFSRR

[36] = system: T36, PSCD2 peptide AARKKRISVKKKQEQ (SEQ ID NO:93)
T36 sequence: AARKKRISVKKKQEQ

[37] = system: T37, peptide PVNKRSKYTMMK (SEQ ID NO:59)
T37 sequence: XXPPGPVNKRSKYTMMK

[38] = system: T38, GABRB2 peptide QKKSRLRRRASQLKI (SEQ ID NO:84)
T38 sequence: QKKSRLRRRASQLKI

[39] = system: T39, MYBPC3 peptide LLKKRDSFRTPRDSKLE (SEQ ID NO:103)
T39 sequence: LLKKRDSFRTPRDSKLE

[40] = system: T40, peptide NYLRRRLSDSNFMAN (SEQ ID NO:38)
T40 sequence: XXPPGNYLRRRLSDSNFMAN

[41] = system: T41, peptide LRRKHLGTLNFGGIR (SEQ ID NO:60)
T41 sequence: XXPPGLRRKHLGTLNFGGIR

## PKC-delta
[1]
  in vitro phosphorylation (% of best substrate): 66
[2]
  in vitro phosphorylation (% of best substrate): 8
[3]
  in vitro phosphorylation (% of best substrate): 2
[4]
  in vitro phosphorylation, 1 uM peptide (% of best substrate): 41
  in vitro phosphorylation, 10 uM peptide (% of best substrate): 23
[5]
  in vitro phosphorylation (% of best substrate): 1
[6]
  in vitro phosphorylation, 1 uM peptide (% of best substrate): 27
  in vitro phosphorylation, 10 uM peptide (% of best substrate): 35
[7]
  in vitro phosphorylation, 1 uM peptide (% of best substrate): 52
  in vitro phosphorylation, 10 uM peptide (% of best substrate): 33
[8]
  in vitro phosphorylation (% of best substrate): 14
[9]
  in vitro phosphorylation, 1 uM peptide (% of best substrate): 31
  in vitro phosphorylation, 10 uM peptide (% of best substrate): 24
[10]
  in vitro phosphorylation (% of best substrate): 38
[11]
  in vitro phosphorylation (% of best substrate): 52
[12]
  in vitro phosphorylation (% of best substrate): 8
[13]
  in vitro phosphorylation (% of best substrate): 34
[14]
  in vitro phosphorylation (% of best substrate): 66
[15]
  in vitro phosphorylation (% of best substrate): 1
[16]
  in vitro phosphorylation (% of best substrate): 4
[17]
  in vitro phosphorylation, 1 uM peptide (% of best substrate): 38
  in vitro phosphorylation, 10 uM peptide (% of best substrate): 16
[18]
  in vitro phosphorylation (% of best substrate): 4
[19]
  in vitro phosphorylation (% of best substrate): 5
[20]
  in vitro phosphorylation, 1 uM peptide (% of best substrate): 13
  in vitro phosphorylation, 10 uM peptide (% of best substrate): 21
[21]
  in vitro phosphorylation (% of best substrate): 76
[22]
  in vitro phosphorylation, 1 uM peptide (% of best substrate): 35
  in vitro phosphorylation, 10 uM peptide (% of best substrate): 28
[23]
  in vitro phosphorylation (% of best substrate): 24
[24]
  in vitro phosphorylation (% of best substrate): 14
[25]
  in vitro phosphorylation, 1 uM peptide (% of best substrate): 30
  in vitro phosphorylation, 10 uM peptide (% of best substrate): 23
[26]
  in vitro phosphorylation (% of best substrate): 2
[27]
  in vitro phosphorylation (% of best substrate): 12
[28]
  in vitro phosphorylation (% of best substrate): 8
[29]
  in vitro phosphorylation (% of best substrate): 2
[30]
  in vitro phosphorylation, 1 uM peptide (% of best substrate): 94
  in vitro phosphorylation, 10 uM peptide (% of best substrate): 99
[31]
  in vitro phosphorylation, 1 uM peptide (% of best substrate): 100
  in vitro phosphorylation, 10 uM peptide (% of best substrate): 79
[32]
  in vitro phosphorylation, 1 uM peptide (% of best substrate): 18
  in vitro phosphorylation, 10 uM peptide (% of best substrate): 26
[33]
  in vitro phosphorylation, 1 uM peptide (% of best substrate): 20
  in vitro phosphorylation, 10 uM peptide (% of best substrate): 17
[34]
  in vitro phosphorylation, 1 uM peptide (% of best substrate): 15
  in vitro phosphorylation, 10 uM peptide (% of best substrate): 12
[35]
  in vitro phosphorylation, 1 uM peptide (% of best substrate): 34
  in vitro phosphorylation, 10 uM peptide (% of best substrate): 23
[36]
  in vitro phosphorylation (% of best substrate): 35
[37]
  in vitro phosphorylation (% of best substrate): 1
[38]
  in vitro phosphorylation (% of best substrate): 34
[39]
  in vitro phosphorylation (% of best substrate): 12
[40]
  in vitro phosphorylation (% of best substrate): 3
[41]
  in vitro phosphorylation (% of best substrate): 1
